# Data from US20250248376A1 (University of Texas, published 2025).
# T1: Contactin (mouse Cntn1) (mouse, UniProt P12960 21-1001)
# T1 construct: whole, on cells; One entry covers both endogenous spinal cord Contactin and Contactin transfected into HEK cells; It was immunoprecipitated from lysates with anti-Contactin antibodies; also called Contactin/F3
# T1 sequence (looked up): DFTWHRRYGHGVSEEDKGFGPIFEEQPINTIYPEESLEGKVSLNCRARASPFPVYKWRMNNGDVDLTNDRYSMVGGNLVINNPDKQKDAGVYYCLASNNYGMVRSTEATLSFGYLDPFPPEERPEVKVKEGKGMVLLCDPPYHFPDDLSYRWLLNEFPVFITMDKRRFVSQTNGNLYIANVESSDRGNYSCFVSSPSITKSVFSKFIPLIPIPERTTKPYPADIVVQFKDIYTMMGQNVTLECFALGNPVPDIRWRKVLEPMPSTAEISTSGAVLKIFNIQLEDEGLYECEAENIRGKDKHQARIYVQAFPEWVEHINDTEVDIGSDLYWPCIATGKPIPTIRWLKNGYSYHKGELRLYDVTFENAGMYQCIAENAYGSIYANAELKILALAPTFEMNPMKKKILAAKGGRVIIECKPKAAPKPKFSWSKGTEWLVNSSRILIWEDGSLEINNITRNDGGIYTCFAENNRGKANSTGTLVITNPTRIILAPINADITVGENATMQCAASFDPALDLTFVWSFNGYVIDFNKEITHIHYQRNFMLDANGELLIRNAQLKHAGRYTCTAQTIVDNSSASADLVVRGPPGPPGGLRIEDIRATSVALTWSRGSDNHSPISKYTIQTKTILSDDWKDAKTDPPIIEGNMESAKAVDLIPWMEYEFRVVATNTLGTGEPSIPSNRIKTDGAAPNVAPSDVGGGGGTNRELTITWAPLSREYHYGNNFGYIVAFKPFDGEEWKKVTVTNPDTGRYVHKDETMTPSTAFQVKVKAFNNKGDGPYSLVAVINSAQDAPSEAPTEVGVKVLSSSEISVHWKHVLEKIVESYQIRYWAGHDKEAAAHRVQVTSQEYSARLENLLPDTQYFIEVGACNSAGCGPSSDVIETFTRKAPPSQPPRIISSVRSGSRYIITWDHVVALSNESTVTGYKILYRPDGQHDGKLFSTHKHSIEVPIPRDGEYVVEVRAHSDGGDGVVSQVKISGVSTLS
# Biological target: T1, Contactin (mouse Cntn1)
# Assay: co-IP with anti-Contactin antibodies from lysates of HEK cells co-transfected with Contactin, immunoblot for Cntnap1 (FIG. 17J)
# From the text: After confirming the mutations, the wild-type Cntnap1, Cntnap1C^C324R or […] cDNAs and Contactin cDNA (MG50933-CF, SinoBiological) were co-transfected into HEK cells. Contactin surface expression was examined by immunostaining of live, non-permeabilized HEK cells followed by fixation and permeabilization and immunostaining with an anti-Cntnap1 antibody to detect the expression of Cntnap1. The wild-type Cntnap1 protein was readily localized at the cell surface of the HEK cells (FIGS. 17Ga, c), however, the surface localization of Cntnap1^C324R (FIGS. 17Ha, c), and Cntnap1^R765c (FIGS. 17Ia, c) mutant proteins was strongly affected. […] The Cntnap1 protein expression was mostly cytosolic in both Cntnap1^C324R or Cntnap1^R765C transfected HEK cells as was the Contactin localization. […] IP of cell lysates from HEK cells that co-expressed the wild-type Cntnap1, Cntnap1^C324R and Cntnap1^R765C proteins and Contactin was also carried out. The expression levels of these proteins were similar in HEK cells transfected with respective expression constructs (FIG. 17J, input).
binder,measurement,value
"Cntnap1^C324R mutant expressed in HEK cells (site-directed mutant of pCMV-Cntnap1^Flag) (receptor, Co-transfected with Contactin cDNA; the co-IP was done on total cell lysates; also called Mouse Cntnap1^C324R clone; not shown: Flag tag inherited from pCMV-Cntnap1^Flag) WGYYGCNEELVGPLYARSLGASSYYGLFTTARFARLHGISGWSPRIGDPNPWLQIDLMKKHRIRAVATQGAFNSWDWVTRYMLLYGDRVDSWTPFYQKGHNATFFGNVNDSAVVRHDLHYHFTARYIRIVPLAWNPRGKIGLRLGIYGCPYTSSILYFDGDDAISYRFQRGASQSLWDVFAFSFKTEEKDGLLLHTEGSQGDYVTLELQGAHLLLHMSLGSSPIQPRPGHTTVSLGGVLNDLSWHYVRVDRYGRDANFTLDGYAHHFVLNGDFERLNLENEIFIGGLVGAARKNLAYRHNFRGRIENVIYNRINIAEMAVMRHSRITFEGNVAFRCLDPVPHPINFGGPHNFVQVPGFPRRGRLAVSFRFRTWDLTGLLLFSHLGDGLGHVELMLSEGQVNVSIAQTGRKKLQFAAGYRLNDGFWHEVNFVAQENHAVISIDDVEGAEVRVSYPLLIRTGTSYFFGGCPKPASRWGCHSNQTAFHGCMELLKVDGQLVNLTLVEFRKLGYFAEVLFDTCGITDRCSPNMCEHDGRCYQSWDDFICYCELTGYKGVTCHEPLYKESCEAYRLSGKYSGNYTIDPDGSGPLKPFVVYCDIRENRAWTVVRHDRLWTTRVTGSSMDRPFLGAIQYWNASWEEVSALANASQHCEQWIEFSCYNSRLLNTAGGYPYSFWIGRNEEQHFYWGGSQPGIQRCACGLDQSCVDPALHCNCDADQPQWRTDKGLLTFVDHLPVTQVVVGDTNRSNSEAQFFLRPLRCYGDRNSWNTISFHTGAALRFPPIRANHSLDVSFYFRTSAPSGVFLENMGGPFCRWRRPYVRVELNTSRDVVFAFDIGNGDENLTVHSDDFEFNDDEWHLVRAEINVKQARLRVDHRPWVLRPMPLQTYIWLVYDQPLYVGSAELKRRPFVGCLRAMRLNGVTLNLEGRANASEGTFPNCTGHCTHPRFPCFHGGRCVERYSYYTCDCDLTAFDGPYCNHDIGGFFETGTWMRYNLQSALRSAAREFSHMLSRPVPGYEPGYVPGYDTPGYVPGYHGPGYRLPEYPRPGRPVPGYRGPVYNVTGEEVSFSFSTNSAPAVLLYVSSFVRDYMAVLIKEDGTLQLRYQLGTSPYVYQLTTRPVTDGQPHSVNITRVYRNLFIQVDYFPLTEQKFSLLVDSQLDSPKALYLGRVMETGVIDPEIQRYNTPGFSGCLSGVRFNNVAPLKTHFRTPRPMTAELAEAMRVQGELSESNCGAMPRLVSEVPPELDPWYLPPDFPYYHDDGWIAILLGFLVAFLLLGLVGMLVLFYLQNHRYKGSYHTNEPKATHDSHPGGKAPLPPSGPAQAPAPTPAPTQLPTPAPAPAPAPASGPGPRDQNLPQILEESRSE","level of Cntnap1 co-immunoprecipitated with Contactin, relative to wild-type Cntnap1",60%
"Cntnap1^R765C mutant expressed in HEK cells (site-directed mutant of pCMV-Cntnap1^Flag) (receptor, Co-transfected with Contactin cDNA; the co-IP was done on total cell lysates; also called Mouse Cntnap1^R765C clone; not shown: Flag tag inherited from pCMV-Cntnap1^Flag) WGYYGCNEELVGPLYARSLGASSYYGLFTTARFARLHGISGWSPRIGDPNPWLQIDLMKKHRIRAVATQGAFNSWDWVTRYMLLYGDRVDSWTPFYQKGHNATFFGNVNDSAVVRHDLHYHFTARYIRIVPLAWNPRGKIGLRLGIYGCPYTSSILYFDGDDAISYRFQRGASQSLWDVFAFSFKTEEKDGLLLHTEGSQGDYVTLELQGAHLLLHMSLGSSPIQPRPGHTTVSLGGVLNDLSWHYVRVDRYGRDANFTLDGYAHHFVLNGDFERLNLENEIFIGGLVGAARKNLAYRHNFRGCIENVIYNRINIAEMAVMRHSRITFEGNVAFRCLDPVPHPINFGGPHNFVQVPGFPRRGRLAVSFRFRTWDLTGLLLFSHLGDGLGHVELMLSEGQVNVSIAQTGRKKLQFAAGYRLNDGFWHEVNFVAQENHAVISIDDVEGAEVRVSYPLLIRTGTSYFFGGCPKPASRWGCHSNQTAFHGCMELLKVDGQLVNLTLVEFRKLGYFAEVLFDTCGITDRCSPNMCEHDGRCYQSWDDFICYCELTGYKGVTCHEPLYKESCEAYRLSGKYSGNYTIDPDGSGPLKPFVVYCDIRENRAWTVVRHDRLWTTRVTGSSMDRPFLGAIQYWNASWEEVSALANASQHCEQWIEFSCYNSRLLNTAGGYPYSFWIGRNEEQHFYWGGSQPGIQRCACGLDQSCVDPALHCNCDADQPQWRTDKGLLTFVDHLPVTQVVVGDTNCSNSEAQFFLRPLRCYGDRNSWNTISFHTGAALRFPPIRANHSLDVSFYFRTSAPSGVFLENMGGPFCRWRRPYVRVELNTSRDVVFAFDIGNGDENLTVHSDDFEFNDDEWHLVRAEINVKQARLRVDHRPWVLRPMPLQTYIWLVYDQPLYVGSAELKRRPFVGCLRAMRLNGVTLNLEGRANASEGTFPNCTGHCTHPRFPCFHGGRCVERYSYYTCDCDLTAFDGPYCNHDIGGFFETGTWMRYNLQSALRSAAREFSHMLSRPVPGYEPGYVPGYDTPGYVPGYHGPGYRLPEYPRPGRPVPGYRGPVYNVTGEEVSFSFSTNSAPAVLLYVSSFVRDYMAVLIKEDGTLQLRYQLGTSPYVYQLTTRPVTDGQPHSVNITRVYRNLFIQVDYFPLTEQKFSLLVDSQLDSPKALYLGRVMETGVIDPEIQRYNTPGFSGCLSGVRFNNVAPLKTHFRTPRPMTAELAEAMRVQGELSESNCGAMPRLVSEVPPELDPWYLPPDFPYYHDDGWIAILLGFLVAFLLLGLVGMLVLFYLQNHRYKGSYHTNEPKATHDSHPGGKAPLPPSGPAQAPAPTPAPTQLPTPAPAPAPAPASGPGPRDQNLPQILEESRSE","level of Cntnap1 co-immunoprecipitated with Contactin, relative to wild-type Cntnap1",10%
